Legend:
hPD-1-His [1] = target: T1, hPD-1-His (human, UniProt Q15116 25-170, limits assumed); assay: competition ELISA: plate coated with shPD-1 and shCTLA-4 1:1 (2 ug/ml each); blocked ligand biotin-labeled PD-L1 6 ug/ml, streptavidin-HRP, RLU
T1 construct: also called His-tagged soluble human PD-1; shPD-1
Procedure: (§1) A series of ELISA assays were conducted to evaluate the ability of bispecific molecules of the invention to block ligand binding to PD-1 and […], alone and in combination. […] Plates were coated with a 1:1 mix of His-tagged soluble human PD-1 (shPD-1) and a His-tagged irrelevant antigen (irrAg) (2 μg/ml each), or a 1:1 mix of shPD-1 and a His-tagged soluble human CTLA-4 (shCTLA-4) (2 μg/ml each).

hPD-1-His [2] = target: T1, hPD-1-His; assay: BIACORE, binder captured on F(ab)2 goat anti-human Fc, His-tagged soluble human PD-1 passed over at 6.25-100 nM; Langmuir 1:1 fit
hPD-1-His [3] = target: T1, hPD-1-His; assay: competition ELISA: plate coated with shPD-1 and irrelevant antigen 1:1 (2 ug/ml each); blocked ligand biotin-labeled PD-L1 6 ug/ml, streptavidin-HRP, RLU
Procedure: as §1

hPD-1-His [4] = target: T1, hPD-1-His; assay: ELISA, hPD-1-His (1 ug/mL) coated, goat anti-human-Fc-HRP detection
Description: FIGS. 8A-8D show the results of ELISA studies measuring the binding of serially diluted binding molecules to human CTLA-4 and human PD-1. […] Goat anti-human-Fc-HRP (1:10,000) was employed as the secondary detection molecule to detect binding. FIGS. 8C-8D show the results of a study on the effect of altering orientations and binding domains on binding. […] Goat anti-human-Fcγ-HRP was employed as the secondary detection molecule to detect binding using PICO chemiluminescent substrate.
Goat anti-human-Fc-HRP (1:10,000) was employed as the secondary detection molecule to detect binding.

[5] = target: T2, PD-1 expressed on the cell surface (human, UniProt Q15116 21-288); assay: cell-based competition (FACS): blocked ligand PD-L1-PE binding to NSO-PD-1 cells, MFI
T2 construct: also called NSO cells expressing PD-1; NSO-PD-1 cells

[6] = target: T2, PD-1 expressed on the cell surface; assay: cell-based competition (FACS): blocked ligand PD-L2-PE binding to NSO-PD-1 cells, MFI
[7] = target: T3, human CTLA-4 expressed on the cell surface (human, UniProt P16410 36-223); assay: flow cytometry (FACS) on Jurkat cells expressing huCTLA-4 but not PD-1, anti-human Fc secondary antibody, MFI
T3 construct: also called huCTLA-4; CHO cells expressing human CTLA-4
T3 sequence: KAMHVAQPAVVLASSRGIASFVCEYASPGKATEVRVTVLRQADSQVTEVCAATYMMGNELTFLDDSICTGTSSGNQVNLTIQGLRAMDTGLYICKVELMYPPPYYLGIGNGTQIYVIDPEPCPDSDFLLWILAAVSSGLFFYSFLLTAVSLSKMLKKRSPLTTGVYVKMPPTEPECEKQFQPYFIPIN
Description: Binding of the DART and TRIDENT molecules to human CTLA-4 was detected using anti-human FC secondary Ab (FACS).

IC50 (read off the curve) (hPD-1-His [1]): ~0.7 nM
Kd (hPD-1-His [2]): 1.1 nM
IC50 (read off the curve) (hPD-1-His [3]): ~0.8 nM
EC50 (hPD-1-His [4]): 0.3 nM
IC50 (read off the curve) [5]: ~0.5 nM
IC50 (read off the curve) [6]: ~0.5 nM
binding result [7]: no binding (tested: about 100 nM)
B1: PD-1 mAb 6 G4P (antibody, human IgG4 S228P, kappa, V domains shown)
VH: QVQLVQSGAEVKKPGASVKVSCKASGYSFTSYWMNWVRQAPGQGLEWIGVIHPSDSETWLDQKFKDRVTITVDKSTSTAYMELSSLRSEDTAVYYCAREHYGTSPFAYWGQGTLVTVSS
VL: EIVLTQSPATLSLSPGERATLSCRASESVDNYGMSFMNWFQQKPGQPPKLLIHAASNQGSGVPSRFSGSGSGTDFTLTISSLEPEDFAVYFCQQSKEVPYTFGGGTKVEIKR
notes: IgG4 with stabilized hinge, kappa; VH/VL of PD-1 mAb 6-ISQ; also called the PD-1 antibody; parental anti-PD-1 antibody

Reference: patent US20210130470A1 (MacroGenics, published 2021)
